These results are taken from PMC11128890 (Frontiers in Cell and Developmental Biology, 2024).

To fix the notation:
B1: recombinant soluble integrin αvβ3 [not stated] / VEGF165 heparin-binding domain (HBD), wild type [human] (parent complex)
chain 1: FNLDVDSPAEYSGPEGSYFGFAVDFFVPSASSRMFLLVGAPKANTTQPGIVEGGQVLKCDWSSTRRCQPIEFDATGNRDYAKDDPLEFKSHQWFGASVRSKQDKILACAPLYHWRTEMKQEREPVGTCFLQDGTKTVEYAPCRSQDIDADGQGFCQGGFSIDFTKADRVLLGGPGSFYWQGQLISDQVAEIVSKYDPNVYSIKYNNQLATRTAQAIFDDSYLGYSVAVGDFNGDGIDDFVSGVPRAARTLGMVYIYDGKNMSSLYNFTGEQMAAYFGFSVAATDINGDDYADVFIGAPLFMDRGSDGKLQEVGQVSVSLQRASGDFQTTKLNGFEVFARFGSAIAPLGDLDQDGFNDIAIAAPYGGEDKKGIVYIFNGRSTGLNAVPSQILEGQWAARSMPPSFGYSMKGATDIDKNGYPDLIVGAFGVDRAILYRARPVITVNAGLEVYPSILNQDNKTCSLPGTALKVSCFNVRFCLKADGKGVLPRKLNFQVELLLDKLKQKGAIRRALFLYSRSPSHSKNMTISRGGLMQCEELIAYLRDESEFRDKLTPITIFMEYRLDYRTAADTTGLQPILNQFTPANISRQAHILLDCGEDNVCKPKLEVSVDSDQKKIYIGDDNPLTLIVKAQNQGEGAYEAELIVSIPLQADFIGVVRNNEALARLSCAFKTENQTRQVVCDLGNPMKAGTQLLAGLRFSVHQQSEMDTSVKFDLQIQSSNLFDKVSPVVSHKVDLAVLAAVEIRGVSSPDHVFLPIPNWEHKENPETEEDVGPVVQHIYELRNNGPSSFSKAMLHLQWPYKYNNNTLLYILHYDIDGPMNCTSDMEINPLRIKISSLQTTEKNDTVAGQGERDHLITKRDLALSEGDIHTLGCGVAQCLKIVCQVGRLDRGKSAILYVKSLLWTETFMNKENQNHSYSLKSSASFNVIEFPYKNLPIEDITNSTLVTTNVTWGIQP
chain 2: GPNICTTRGVSSCQQCLAVSPMCAWCSDEALPLGSPRCDLKENLLKDNCAPESIEFPVSEARVLEDRPLSDKGSGDSSQVTQVSPQRIALRLRPDDSKNFSIQVRQVEDYPVDIYYLMDLSYSMKDDLWSIQNLGTKLATQMRKLTSNLRIGFGAFVDKPVSPYMYISPPEALENPCYDMKTTCLPMFGYKHVLTLTDQVTRFNEEVKKQSVSRNRDAPEGGFDAIMQATVCDEKIGWRNDASHLLVFTTDAKTHIALDGRLAGIVQPNDGQCHVGSDNHYSASTTMDYPSLGLMTEKLSQKNINLIFAVTENVVNLYQNYSELIPGTTVGVLSMDSSNVLQLIVDAYGKIRSKVELEVRDLPEELSLSFNATCLNNEVIPGLKSCMGLKIGDTVSFSIEAKVRGCPQEKEKSFTIKPVGFKDSLIVQVTFDCDCACQAQAEPNSHRCNNGNGTFECGVCRCGPGWLGSQCECSEEDYRPSQQDECSPREGQPVCSQRGECLCGQCVCHSSDFGKITGKYCECDDFSCVRYKGEMCSGHGQCSCGDCLCDSDWTGYYCNCTTRTDTCMSSNGLLCSGRGKCECGSCVCIQPGSYGDTCEKCPTCPDACTFKKECVECKKFDRGALHDENTCNRYCRDEIESVKELKDTGKDAVNCTYKNEDDCVVRFQYYEDSSGKSILYVVEEPECPKGPD
chain 3: PCGPCSERRKHLFVQDPQTCKCSCKNTDSRCKARQLELNERTCRCDKPRR

The variants in the first test derive from B1. Kind of test: ELISA-type binding assay; HBD coated at 2.5 µg/ml; n=3; read off a plot.
Turning to chain 3 R8A, chain 3 R9A, chain 3 K10A, chain 3 K25A, chain 3 R30A, chain 3 R34A, the response is approximately 0.02 OD450.

Turning to chain 3 K25A, chain 3 R30A, chain 3 R34A, the response is approximately 0.3 OD450.

Regarding chain 3 R8A, chain 3 R9A, chain 3 K10A, the response is approximately 0.25 OD450.

Variants of B1 are the subject of another test. Kind of test: ELISA-type binding assay; HBD coated at 5 µg/ml (highest point of the curve); read off a plot. In general terms: In an ELISA, binding on a coated surface is turned into a signal by an enzyme label.
On to chain 3 R8A, chain 3 R9A, chain 3 K10A, chain 3 K25A, chain 3 R30A, chain 3 R34A, for which the response is approximately 0.11 OD450.

For the variant chain 3 K25A, chain 3 R30A, chain 3 R34A, the response was approximately 1.1 OD450.

In the case of chain 3 R8A, chain 3 R9A, chain 3 K10A, the response is approximately 0.78 OD450.
